Molecular target: T1, His-tagged VPS18 RING domain (residues 842–973) (human, UniProt Q9P253 842-973)
T1 construct: Vector pOPTnH; monomeric by SEC-MALS; also called VPS18 RING H6; VPS18H6; source: E. coli Rosetta2(DE3) pLysS, purified (Ni-NTA, SEC); not shown: LysHis6, C-terminal, kept
T1 sequence (looked up): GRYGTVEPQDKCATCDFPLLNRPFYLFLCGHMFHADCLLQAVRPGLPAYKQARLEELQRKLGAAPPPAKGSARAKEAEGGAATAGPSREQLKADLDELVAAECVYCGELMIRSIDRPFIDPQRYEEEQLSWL
Test: SEC-MALS; Superdex 75 10/300, room temperature, 20 mM Tris (pH 7.5), 150 mM NaCl, 0.5 mM EDTA; complex formed from 0.48 mg/ml VPS41 RING and 0.68 mg/ml VPS18 RING H6 on ice for 15 min
Conditions: both partners purified

B1: tag-free VPS41 RING domain (residues 778–854) (domain or fragment, human, UniProt P49754 778-854, looked up)
chain: TQMKGVLVDEENICESCLSPILPSDAAKPFSVVVFHCRHMFHKECLPMPSMNSAAQFCNICSAKNRGPGSAILEMKK
notes: monomeric by SEC-MALS; also called untagged VPS41 RING; not shown: GST, N-terminal, cleaved
- stoichiometry N: 1
